Columns and labels:
[1] = target: CrPLC C7A mutant (Chlamydomonas reinhardtii); test: SEC; HiLoad 16/60 Superdex 200 prep grade and Superose 12 10/300 GL analytical columns, PBS, 1 ml/min, 4°C, no reducing agent; calibrated with molecular weight standards; 5 to 50 µM on the analytical column; monomer and dimer fractions reloaded
[2] = target: recombinant phospholipase C of Chlamydomonas reinhardtii (CrPLC), wild type (Chlamydomonas reinhardtii); test: as above

percent of dimerization disrupted [1] [%]	stoichiometry N [2]	Substance
95	–	CrPLC C7A mutant (enzyme)
–	2	recombinant phospholipase C of Chlamydomonas reinhardtii (CrPLC), wild type (enzyme)

Source: paper PMC3380823
